Results: a protein production outcome set (Wang et al. 2014)

test: label from the status in PepcDB records

**Q.** With “MDTSRLRPTSPLVRQAAACLDAGEADHADVLLDLHLSRHPEDSAGLILFGLTRVALGRPLEAEQPLRRALALDPIDDPFHARAVCALVDVLKAQGRMAEVSEVLERAGDVAPMNAVFPRMLGAHYRALGQVGAAITAARRAVAVESADGENWRGLAATLLGGAPGEALEALERAKTCGDDGADWWNIRGVALAALGEGEAAREAFKNAILRDGAAPMAWTNLGNLEIRAARSADALERAVEAYGQAIRRAPDSFEAHNNLAQALRDLGRRDEALVHAERAASLRPHDVTVLNTQANILRGLRRVDEAVAILERALACDGRSAETHSNLGLALLAAQDRQRAEEHFRKAAALAPDCVDIIVNLACFLIHINAGKEVLGVLEPALARFPGDVGLLATLGLHYFQENAYEDCATVFETVLAKKPDHVEARASLGVVRWSQGRLVESLALAQSIREDFPEDIRTLFLLGCVHSDLMENASALEVFDLAVEKGGERVPPFHYSNCCFSFHYVEAMEKDDLFARHRRWDALYGAGATELSDVTHHNTRDPERRLRIGYVSPDFRRHSVAYFFLPLVGAHDRAAVEVTCYSLSTLTDQMTDLIREGCDRWRDITTLPAEKAAERVREDEIDILVDLSGHTANNGLSIFALKPAPVQVTYLGYPNTTGLSAIDYRLTDGFADPLGVDEDPASETLWRLPRSFLLFDEVPGLPDPAPPPVLSRGTITFGSFNNMAKVNRGCVAVWKRILDAVPGSRLLLKAKGFRDPATAKVLIERLIDWGVDPEQVSYAPYAKNLMEHVAVYAEVDIALDTFPYNGTTTTFEALHMGVPVIGLRGHRHSGRVGASILGNLGLADRLLGEDVDDMVAKAVALAGDLEGLMRMRAGLRERLRASPLQDGPGFVADLEGAYRAMWRRWCAGPPTFHRQPKNGMWAVEEMEDAIEPVLG” as the sequence, how does the protein production read?
**A.** failed

**Q.** With “MDTTKTIAALFDFDGVIMDTETQYTVFWDEQGRKYLNEEDFGRRIKGQTLTQIYEKYFSDLPEAQQEITAGLNIYEKSMSYEYIPGVEAFIADLRKHGAKIAVVTSSNEEKMQNVYNAHPEFKGMVDRILTGEMFARSKPAPDCFLLGMEIFGATPENSYVFEDSFHGLQAGMTSGATVIGLATTNTREAITGKAHYIIDDFSEMTFEHLLALHR” as the sequence, how does the protein production read?
**A.** failed

**Q.** With “MDVDTAFLNSTMDEPIYVKQPPGFVNERNPDYVWELYGGMYGLKQAPLLWNEHINNTLKKIGFCRHEGEHGLYFRSTSDGPIYIAVYVDDLLVAAPSPKIYDRVKQELTKLYSMKDLGKVDKFLGLNIHQSSNGDITLSLQDYIAKAASESEINTFKLTQTPLCNSKPLFETTSPHLKDITPYQSIVGQLLFCANTGRPDISYPVSLLSRFLREPRAIHLESARRVLRYLYTTRSMCLKYRSGSQLALTVYCDASHGAIHDLPHSTGGYVTLLAGAPVTWSSKKLKGVIPVPSTEAEYITASETVMEI” as the sequence, how does the protein production read?
**A.** failed

**Q.** Which protein production does the source give for “MDVEAWLDERVPLVETHHHHHHENLYFQSHMNHGANIFGVAFNTLLGKDEPQVFATAGSNRVTVYECPRQGGMQLLHCYADPDPDEVFYTCAWSYDLKTSSPLLAAAGYRGVIRVIDVEQNEAVGNYIGHGQAINELKFHPHKLQLLLSGSKDHAIRLWNIQSHVCIAILGGVEGHRDEVLSIDFNMRGDRIVSSGMDHSLKLWCLNTPEFHHKIELSNTFSQEKSTLPFPTVTKHFPDFSTRDIHRNYVDCVQWFGNFVLSKSCENAIVCWKPGQLHQSFEQVKPSDSSCTIIAEFEYDECEIWFVRFGFNPWQKVIALGNQQGKVYVWELDPSDPEGAHMTTLHNSRSVATVRQIAFSRDASVLVYVCDDATVWRWNRRQTTSI” here?
**A.** failed

**Q.** Which protein production does the source give for “MDVFSDRVLLTEESPIRKLVPFAEMAKKRGVRIHHLNIGQPDLKTPEVFFERIYENKPEVVYYSHSAGIWELREAFASYYKRRQRVDVKPENVLVTNGGSEAILFSFAVIANPGDEILVLEPFYANYNAFAKIAGVKLIPVTRRMEEGFAIPQNLESFINERTKGIVLSNPCNPTGVVYGKDEMRYLVEIAERHGLFLIVDEVYSEIVFRGEFASALSIESDKVVVIDSVSKKFSACGARVGCLITRNEELISHAMKLAQGRLAPPLLEQIGSVGLLNLDDSFFDFVRETYRERVETVLKKLEEHGLKRFTKPSGAFYITAELPVEDAEEFARWMLTDFNMDGETTMVAPLRGFYLTPGLGKKEIRIACVLEKDLLSRAIDVLMEGLKMFCSSRISC” here?
**A.** not failed

**Q.** For “MDVLSLVGIILAFVAIVGGNFLEGGHAGALLNGPAALIVIGGTLAAALLQTPVNVLKRGLGMLGWVFFPPREDLSGGIDRIVSWSMTARKEGLLGLESIADAEPDPYARKGLQLLVDGAEPEVIRSILEVDLFTQESRDLQAAKVFESMGGYAPTIGIIGAVMGLIHVMGNLANPAQLGSGIAVAFVATIYGVGFANLLLLPIGNKLKTLVLRQSRYREMLLEGLLSIAEGENPRSIELKLQGFMD”, which protein production is on record?
**A.** failed

**Q.** Which protein production does the source give for “MDVLTDQDVQKFRDEGYLVLEGLLSPEECDALRRRMSEIIESMDVPEHCRTQFSTDHDEQLKTQGNADYFITSGDKIRFFFEKGVFDDKGEFVVPKEQSLNKIGHALHAYEPLFKRVTHSPKVQNICKKLELINPVILQSMYIFKQPGIGGEVTPHQDATFLYTQPLGRVMGVWVALEDAMQENGCLWFIPGSHNDGITRRMVRTPKGTFPLTDFIGREKDYDDKLFVPAPVKKGGAVLIHGEVVHRSAANTSDASRHVYTFHIMESENTVWSPENWLQATEELPFPSLYT” here?
**A.** failed

**Q.** With “MDVSFEFEHYQVRLIKSSDAVTIANYFMRNRHHLAPWEPKRSHAFFTPEGWKQRLLQLVELHKHNLAFYFVVVDKNEHKIIGTVSYSNITRFPFHAGHVGYSLDSEYQGKGIMRRAVNVTIDWMFKAQNLHRIMAAYIPRNEKSAKVLAALGFVKEGEAKKYLYINGAWEDHILTSKINDDWKP” as the sequence, how does the protein production read?
**A.** not failed

**Q.** Which protein production does the source give for “MDYLVKALAYDGKVRAYAARTTDMVNEGQRRHGTWPTASAALGRTMTASLMLGAMLKGDDKLTVKIEGGGPIGAIVADANAKGEVRAYVSNPQVHFDLNEQGKLDVRRAVGTNGTLSVVKDLGLREFFTGQVEIVSGELGDDFTYYLVSSEQVPSSVGVGVLVNPDNTILAAGGFIIQLMPGTDDETITKIEQRLSQVEPISKLIQKGLTPEEILEEVLGEKPEILETMPVRFHCPCSKERFETAILGLGKKEIQDMIEEDGQAEAVCHFCNEKYLFTKEELEGLRDQTTR” here?
**A.** not failed

**Q.** With “MEANSGGGGGAEGGRAVTGGGGGGGGSDVELVSKTLQVEHKLFYFDLKENPRGRYLKISEKTSATRSTIIVPSSGISWFLDLFNYYVNSEEHELFSKELQLDSKVFYFDIGENRRGRFLKVSEASVSRNRSTIIVPAGSSPDEGWAAFRNILAEIHEASGLFVMPNQKPSDGQEHLVDDVGAGFIPGHGSQQPSSSEHNVDRTIDSPGSDRSSIILPLSGLKQFHEVIGHFVEITKDKIEVLILLEDGNFQSSNHLNLATSSRLPDRGVQ” as the sequence, how does the protein production read?
**A.** failed

**Q.** Which protein production does the source give for “MEATEKLREKPIKSLFISYLIPAVLGMVLMSVNIVIDAVMISRGVGANGLAGVNVAIPAFSIFFSISLWIGMGGATLYSIALGENKIERARSIFTQSMTVAVIIVGVLAAICLWRIEDLAYVFGANEVILPYALDYLHVLLTFGMIYVLENILSTFIRNDGNPNLAMAGLVVTAVLNIVFDYIFIFIFKWGVTGAASATILSAAIGFLVLLTHFFRKSSILKWTKFHFEWDTVKQIMIIGFPSFTAESTVAIVTIGFNIAFVQYAGEVGVASYAMVNSIHAMTLLLFFGVGAALQPIASFHYGANLAERLREGLQFAVKIAVVLGGVAIIVGLFFGKYIIGLFDVQSPELLELTLTGMSLFFIQYVFLGYNIVYGEYFQSVRQTTKSVLIIMSRGLLFIIPLLWIMPKLFGINGIWLVMPVAEVLTAIIVFTMNRMKHPVPLNMAGEKEAI” here?
**A.** failed

**Q.** For “MEATEKLREKPIKSLFISYLIPAVLGMVLMSVNIVIDAVMISRGVGANGLAGVNVAIPAFSIFFSISLWIGMGGATLYSIALGENKRERARSIFTQSMTVAVVIVGILAAICLWRIEDLAYLFGANEVILPYALDYLHVLLTFGMIYVLENILSTFIRNDGNPNLAMAGLVVTAVLNIVFDYIFIFIFGWGVTGAASATILSAAIGFLVLLTHFFRKSSILKWTKFHFEWDTVKQIMVIGFPSFTAESTVAIVTIGFNIAFVQYAGEVGVASYAMVNSIHAMTLLLFFGVGAALQPIASFHYGANLSERLREGLKFAVKIAVVLGGIAIIVGLFFGKYIIGLFDVQSPELLELTLTGISLFFIQYVFLGYNIVYGEYFQSVRQTKKSVLIIMSRGLLFIIPLLWIMPKLFGINGIWLVMPVAEVMTAIIVFTMNRMKHPVPLNMAGEKEAI”, which protein production is on record?
**A.** not failed

**Q.** Which protein production does the source give for “MEATNKMKVEVWSDIMCPFCYIGKRNYEAGLKQFADSNNIEIIWKSFQLDPNIPQDTAVTENVYQYLAERKGMSYEQSVQMHDSVVATAKKAGLDYNFDKAVIANSFNAHRMIQLAKTKDLGDAAEERLFYAYFTEGKNVGNSYVLIELGKDIGLTEAEVQTALTDDTYAYKVRQDVEEAQHLGVRGVPFFVFDRKYAVSGAQPPQAFLETLEKSFSEWRKEHPASPFEVSEGPSCSVDGCD” here?
**A.** not failed

**Q.** Which protein production does the source give for “MECDRNVEKMSQVILLFFIYSFIGWLWETVYCSLKAKKFVYRGFLVGPYCPIYGFGVLSVLYFVEPFENNLLVLYVGSAVLVTILEYVTSYGLEKLFHASWWDYHDVPFNLNGRVALPVSLFWGLGCVLIVKVIQPEIAKVVSFLQATFGNYLALCIVIVMGLDLIYTLLNMQGFKKLITEMGQTLETNQQEFKQRLNTKMEIATADWQKLKERTKKEHFQNRLNFQQRRFINNYPKLTLKNIKNSKEVRHLLEDLKKKGQ” here?
**A.** failed

**Q.** Which protein production does the source give for “MEDAAEQERGFHVITIRKQIVTAALPLQDHWLPLSNLDLLLPPVQISVCFCYKKPRHFLSVAETLKASLAEALVSYYAFAGELVKNSSGEPEILCNNRGVDFLEAVADVELRELNLHDPDESIAKLVPKKKHGVIAIQVTQLKCGSIVVGCTFDHRIADAFSMNMFLVSWAEISRFNAPISSVPSFRRSILNPRRPLIIDSSIDKMYMPVTSLPLPQETTNDLDNILTSRIYYIKENALEDLQTLASGSSPKTGYGQRTKLESFSAFLWKLVAKHTGRDLVSNKNSKMGIVVDGRRRLMEKEDNTYFGNVLSIPFGGQSIDDLIDKPLSWVTNEVHRFLEEAVTKEHFLNLIDWVEIHRPIPAVSRIYSTGTDDGPAFVVSSGRSFPVNKVDFGWGLPVFGSYHFPWEGSSGYVMPMPSPVDDGNGDWVVYLHLTKGQLKFIEEEASHVLKPIDNYYLKINTIN” here?
**A.** failed
